± gives the half width of the 95% confidence interval.
Test: folding stability dG unfold (combined trypsin and chymotrypsin); higher = more stable
In short: (§1)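 Digests were run with trypsin and chymotrypsin at 11 concentrations in threefold dilutions, plus a no-protease condition, on designed mini-proteins in a PA-tagged cDNA display construct. The mini-proteins were under 80 residues, had no cysteine, and were kept only when AlphaFold2 dimer inter-PAE was above 15. After sequencing, Bayesian fitting of the counts gave K50, from which unfolding free energy was derived against a sequence-predicted unfolded-state K50 and a shared folded-state K50, per protease or combined.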

In order of rising “folding stability dG unfold” value:
1. SAGGSAGGSAGGAMTVETVELPSGEVVTLEYDPASGRVLTTVETPDSVERTEDPLEPPAASAGGSAGGSAGG [r7_63_JUSTAS]  -0.0846 ± 0.19 kcal/mol
2. SAAMLFEKKTGIKVDVSLVPPEQISQLPPSYTVTPEGDVVVVTTVTTLPLSSYPVKLPPVYDPNTLKLLSAG [r14_126_JUSTAS]  -0.0133 ± 0.11 kcal/mol
3. SAGGGALVLPDPDVPDDLPLVVVDPENGTVTLLHFDRETGRVRARVVRLGDGVPEEEEAVFPVAPDALSAGG [r13_851_TrMRF]  0.078 ± 0.11 kcal/mol
4. SAGGSAGGSAGGMKLDVTIVGDGKVTTLPADSLEDVEETLKKLGLTLKSVDPATGTVTVASAGGSAGGSAGG [r7_726_JUSTAS]  0.305 ± 0.19 kcal/mol
5. SAGGSAGGSAMIVKEFVTYDPSTGTRTRTTVTLELYDSPEGGAVVVLEEEVDPVGPLPPLESAGGSAGGSAG [r3_397_JUSTAS]  0.323 ± 0.12 kcal/mol
6. SAGGSIEEVIEELIKSGKPPSKEEIKEAIKKAIEEEVKKKGKKIPKVNIKKITSNPETGKIPIEIIISAGGS [r16_365_JUSTAS]  0.356 ± 0.17 kcal/mol
7. SAGGSAMLKVTERTVEVEVFDEEGNPIGWRERKIVVEDPLSPEPRPPPPPVDPVLAAETLGADVLESAGGSA [r15_572_JUSTAS]  0.393 ± 0.14 kcal/mol
8. SAGGSAKVIAVPSLEEALKLAEEAAKEGKDIVVLFPDNRLLVVEVKPAPDDKPVLKLKVFEIPPELSAGGSA [r15_761_TrMRF]  0.767 ± 0.15 kcal/mol
9. SAGGSAGGSAGMEITRDKTPDGVWTVTITVPRPDGPSITVTVTGSPDGDFAPEKIAAVLASAGGSAGGSAGG [r11_759_JUSTAS]  0.819 ± 0.13 kcal/mol
10. SAGGMTSTLTVTLTVSPSTSPEEAAERAAEALEAAHPDRTVVIESITVTPATGKVVATIKVVGDTGASAGGS [r8_26_JUSTAS]  1.39 ± 0.07 kcal/mol
11. SAGGSAGGSAGSVTVTLSSDPDKTFTVTLPGGETVTFQPTPTNQVTVTVTSPTTPVTVTVSSAGGSAGGSAG [r3_334_JUSTAS]  1.43 ± 0.096 kcal/mol
12. SMPPEDPGELTLVVPDTRNVTVTLPVPVPPEARVLVTFSDGRRVEAPAGTELTFTIPPGRPYVIRVEVYASA [r9_79_TrMRF]  1.6 ± 0.076 kcal/mol
13. SAGGSAGGSAGGSFEVVSVDETVTVPPGATVTIVVRDENGKLLTFTFEVRLVPPPPEEESAGGSAGGSAGGS [r10_573_TrROS_Hall]  1.86 ± 0.18 kcal/mol
14. SAGGSAGGSASKTIFIPAAVVAANPEKAVEFAEKVREEFEKKGLSVKTEVLPDGGIGIHVGSAGGSAGGSAG [r3_75_TrMRF]  1.88 ± 0.087 kcal/mol
15. SAGGSAGGNVILVETGPDGRARVLVFDPETGKVTEYEVPADDLDAIEAIAADKVDLVIVRPVGPSAGGSAGG [r6_639_TrMRF]  2.07 ± 0.11 kcal/mol
16. SAGTIREALDNPKNKRVVIMIMIPPEDFPPGDPERYRERAREMANGIMGWFRERGLDVKIEIEIMYMPWSAG [r5_408_TrROS]  2.65 ± 0.079 kcal/mol
17. SAGSMVLTEDKEFEVDYVLPDGTRLTEPVKVKVKTTTVFLKNNSSLVLTFTTVTLTDPKGNKVTFSGSVSAG [r5_257_JUSTAS]  2.7 ± 0.1 kcal/mol
18. MEIKKIELKVEEKDGKLVLTVKIEVFDKNGKLVKKVEIKLEVPKELKEGQSLEELPLSEELRKLVKELLEKS [r1_354_TrROS_Hall]  3.54 ± 0.7 kcal/mol
19. SAGGSAGGSAKKPTAEEILKKLKLPEGAKIVKIEVEYDKKTKKVTIKIEIKVNGKTYTFEIKSAGGSAGGSA [r18_354_TrROS_Hall]  3.94 ± 0.18 kcal/mol
20. SMKPGELVLVTETETRTFTVTPEDLPPGWKVKEVKVTVTRVALFRVTPDGRVELVEEVTSVEIEVTLEPESA [r9_747_TrROS_Hall]  4.52 ± 0.22 kcal/mol
21. SAGGSAGGSAGKKIKYRITIYNKKTGKTIEIEIEMSEDEIKKIAEELAKKYNVKIKIEPVSAGGSAGGSAGG [r11_515_TrROS_Hall]  4.56 ± 0.18 kcal/mol

Test: folding stability dG unfold from trypsin proteolysis; higher = more stable
In short: as §1

In order of rising “folding stability dG unfold” value:
1. SAGGSAKITIHMAPDGMFQIEIKTGGKERTYHVDMPLEQIKDELEDEGLEIKDIEITPFPPDPEDFSAGGSA [r15_576_TrROS]  -1.13 ± 0.93 kcal/mol
2. SAGGSIEEVIEELIKSGKPPSKEEIKEAIKKAIEEEVKKKGKKIPKVNIKKITSNPETGKIPIEIIISAGGS [r16_365_JUSTAS]  -0.757 ± 0.41 kcal/mol
3. SAGGMPVTTTPRTVELPDRRVEVIDRTFPNGPPRTTVVVRDPAGNLVATREFTGPEWEEWLRAEGALLSAGG [r19_90_JUSTAS]  -0.606 ± 0.17 kcal/mol
4. SAGGSALTLNDKSLIPKPFPKKKAIVDVAVPLPPNLTLEEALEVAEAIANNLLKAGKIDEATVAIYSAGGSA [r15_450_TrMRF]  -0.0583 ± 0.11 kcal/mol
5. SAGGSAMLKVTERTVEVEVFDEEGNPIGWRERKIVVEDPLSPEPRPPPPPVDPVLAAETLGADVLESAGGSA [r15_572_JUSTAS]  -0.0577 ± 0.14 kcal/mol
6. SAAMLFEKKTGIKVDVSLVPPEQISQLPPSYTVTPEGDVVVVTTVTTLPLSSYPVKLPPVYDPNTLKLLSAG [r14_126_JUSTAS]  0.146 ± 0.12 kcal/mol
7. SGEIIGEQTFPVEDGGKVPVKIYKNPGNLYAEVFNDDDKPIQEQEIPPDDDLEDIENIKLPPGAWVRIYWSA [r9_215_TrROS]  0.205 ± 0.14 kcal/mol
8. SAGGGALVLPDPDVPDDLPLVVVDPENGTVTLLHFDRETGRVRARVVRLGDGVPEEEEAVFPVAPDALSAGG [r13_851_TrMRF]  0.242 ± 0.11 kcal/mol
9. SAGGSAGGSAGGAMTVETVELPSGEVVTLEYDPASGRVLTTVETPDSVERTEDPLEPPAASAGGSAGGSAGG [r7_63_JUSTAS]  0.302 ± 0.015 kcal/mol
10. SAGGMVVVAVEVDPVTKTATIVYAAPVPNLGGYVPIPAAAVAKRLTEELGLPDVKEVTVAQAAGDVPISAGG [r13_327_TrMRF]  0.428 ± 0.057 kcal/mol
11. SAGGSAKVIAVPSLEEALKLAEEAAKEGKDIVVLFPDNRLLVVEVKPAPDDKPVLKLKVFEIPPELSAGGSA [r15_761_TrMRF]  0.47 ± 0.049 kcal/mol
12. SAGGSAGGSAMIVKEFVTYDPSTGTRTRTTVTLELYDSPEGGAVVVLEEEVDPVGPLPPLESAGGSAGGSAG [r3_397_JUSTAS]  0.704 ± 0.062 kcal/mol
13. SAGGSAGGSAGGMKLDVTIVGDGKVTTLPADSLEDVEETLKKLGLTLKSVDPATGTVTVASAGGSAGGSAGG [r7_726_JUSTAS]  0.718 ± 0.051 kcal/mol
14. SAGGSAGGSAGGPLKVEVIGSIEGDDRVYVLTRVPGVGGLFVAEYEKPSGKILSVSPVPLSAGGSAGGSAGG [r7_154_TrMRF]  0.743 ± 0.065 kcal/mol
15. KKIHIMFNNPQHVRRIAKKLGPNVKPDDVKKNPNGYYYFEIDLPNGRPIDIHIPSENMPAEDIVDYALEMLS [r1_279_TrROS]  0.88 ± 0.02 kcal/mol
16. SAGGSAGGEPETIEIKMTPEELEELARELEKEGYTIEVEVVEEKVVGPDGKEREVVVRVRVEKRSAGGSAGG [r6_857_TrROS_Hall]  0.991 ± 0.03 kcal/mol
17. SAGGSAGGDKKGKPKPQWVTIMFKVPDDDLPPEEIAKEFPGVKIERSPGMYMITVPVNGKWIPFSAGGSAGG [r6_739_TrROS]  1.02 ± 0.039 kcal/mol
18. SERLKLKITIKNANGETYEVEIEFDLETNELTIKVKPVPALPPVTEKRVVKKDGKLVEETRTVLLSEEDLSA [r9_587_TrROS_Hall]  1.02 ± 0.16 kcal/mol
19. SAGGSAGGSGSFSLSFPDADGVSVTLDPNTGIVTMSFNRPDANYTITLERYPDSIVVKEIKLPSAGGSAGGS [r20_60_JUSTAS]  1.05 ± 0.026 kcal/mol
20. SAGGSAGGSAGMEITRDKTPDGVWTVTITVPRPDGPSITVTVTGSPDGDFAPEKIAAVLASAGGSAGGSAGG [r11_759_JUSTAS]  1.15 ± 0.038 kcal/mol
21. SMPPEDPGELTLVVPDTRNVTVTLPVPVPPEARVLVTFSDGRRVEAPAGTELTFTIPPGRPYVIRVEVYASA [r9_79_TrMRF]  1.2 ± 0.027 kcal/mol
22. SAGGMILKITIPKEDEEKAKELADELAKKLEEETGKPIKVKVKVEKNENGELTIVIEVDGKKIEIKLSAGGS [r16_356_TrROS_Hall]  1.32 ± 0.091 kcal/mol
23. SAGGMTSTLTVTLTVSPSTSPEEAAERAAEALEAAHPDRTVVIESITVTPATGKVVATIKVVGDTGASAGGS [r8_26_JUSTAS]  1.53 ± 0.055 kcal/mol
24. SAGGSAGGSAGGSFEVVSVDETVTVPPGATVTIVVRDENGKLLTFTFEVRLVPPPPEEESAGGSAGGSAGGS [r10_573_TrROS_Hall]  1.58 ± 0.1 kcal/mol
25. SAGGSAGGNVILVETGPDGRARVLVFDPETGKVTEYEVPADDLDAIEAIAADKVDLVIVRPVGPSAGGSAGG [r6_639_TrMRF]  1.75 ± 0.059 kcal/mol
26. SAGGSAGGSMKVYKLPGGYTVTVEPVDGGTLVTITLPDGSVKTKFVPPDEPVVVDPNGAKITVSAGGSAGGS [r12_281_JUSTAS]  1.85 ± 0.071 kcal/mol
27. SAGGSAGGSAGSVTVTLSSDPDKTFTVTLPGGETVTFQPTPTNQVTVTVTSPTTPVTVTVSSAGGSAGGSAG [r3_334_JUSTAS]  1.96 ± 0.074 kcal/mol
28. SAGGSAGGSASKTIFIPAAVVAANPEKAVEFAEKVREEFEKKGLSVKTEVLPDGGIGIHVGSAGGSAGGSAG [r3_75_TrMRF]  2.07 ± 0.071 kcal/mol
29. SAGGSAKKTYIIKIPVKEIVVKDKKTGKYKPISAEELAKLLEEKTGLKVEIVEVKDGYIVIKVKEKSAGGSA [r15_55_TrROS_Hall]  2.26 ± 0.091 kcal/mol
30. SAGSMVLTEDKEFEVDYVLPDGTRLTEPVKVKVKTTTVFLKNNSSLVLTFTTVTLTDPKGNKVTFSGSVSAG [r5_257_JUSTAS]  2.31 ± 0.074 kcal/mol
31. SASLEPVATTAVPLPDGTTATLTLYRDPATGRYTVRVTVTHPDGAAETRVLEVDSEEEALSRVVLSPGASAG [r14_749_JUSTAS]  2.38 ± 0.049 kcal/mol
32. SAGTIREALDNPKNKRVVIMIMIPPEDFPPGDPERYRERAREMANGIMGWFRERGLDVKIEIEIMYMPWSAG [r5_408_TrROS]  2.38 ± 0.044 kcal/mol
33. SAGGPPNGMVPIKVPIKIRFPNGHEFKIDEAYVMPNGMVMIEMTHTDPDDKKEKFPFMIPPDNLEIVSAGGS [r16_498_TrROS]  2.41 ± 0.15 kcal/mol
34. SAGGSAKEVKIKFTRNPDGTLTMEITFEDGYVIRKTFTVKNGKLTEKVEVFPVKLDPETGKLVLLPSAGGSA [r15_746_TrROS_Hall]  2.52 ± 0.078 kcal/mol
35. SAGGSAGGSAKKPTAEEILKKLKLPEGAKIVKIEVEYDKKTKKVTIKIEIKVNGKTYTFEIKSAGGSAGGSA [r18_354_TrROS_Hall]  2.81 ± 0.15 kcal/mol
36. SAGGSAGGSAKMIIRIRNKNGKIIELTLEEVAKKLGLSKEEMTAEEILKKLKENIEKVEILPSAGGSAGGSA [r18_403_TrROS_Hall]  2.9 ± 0.047 kcal/mol
37. SAGGSAGGSAGGSKIRLKINMTEEELKELLKKLFPNAKVTRIERKKDGSIYVEIELEPESAGGSAGGSAGGS [r4_95_TrROS_Hall]  2.94 ± 0.11 kcal/mol
38. MEIKKIELKVEEKDGKLVLTVKIEVFDKNGKLVKKVEIKLEVPKELKEGQSLEELPLSEELRKLVKELLEKS [r1_354_TrROS_Hall]  3.11 ± 0.26 kcal/mol
39. SAGGSAGGSASKDDKIVKVKVFTIKLKPNLEGLPKKVRELLEKLGIKEIKITFVSVFNPEDFSAGGSAGGSA [r18_127_TrMRF]  3.23 ± 0.2 kcal/mol
40. SAGGSAGGSAGKKIKYRITIYNKKTGKTIEIEIEMSEDEIKKIAEELAKKYNVKIKIEPVSAGGSAGGSAGG [r11_515_TrROS_Hall]  3.71 ± 0.13 kcal/mol
41. SAGGSAGGSALDDFKIEEVQYDPDGNTIRFIFKFPGQVWILRIRMPKNGKMEIEWIPADDISAGGSAGGSAG [r3_167_TrROS]  3.96 ± 0.21 kcal/mol
42. SMKPGELVLVTETETRTFTVTPEDLPPGWKVKEVKVTVTRVALFRVTPDGRVELVEEVTSVEIEVTLEPESA [r9_747_TrROS_Hall]  4.39 ± 0.42 kcal/mol

Reference: the supplement of paper PMC12764529
